Tests used:
Test in all cases: co-immunoprecipitation, transfected HEK293T cells, SDS-PAGE/immunoblot
CARD9 = biological target: T1, CARD9 (UniProt Q9H257 1-536, limits assumed)
T1 sequence (looked up): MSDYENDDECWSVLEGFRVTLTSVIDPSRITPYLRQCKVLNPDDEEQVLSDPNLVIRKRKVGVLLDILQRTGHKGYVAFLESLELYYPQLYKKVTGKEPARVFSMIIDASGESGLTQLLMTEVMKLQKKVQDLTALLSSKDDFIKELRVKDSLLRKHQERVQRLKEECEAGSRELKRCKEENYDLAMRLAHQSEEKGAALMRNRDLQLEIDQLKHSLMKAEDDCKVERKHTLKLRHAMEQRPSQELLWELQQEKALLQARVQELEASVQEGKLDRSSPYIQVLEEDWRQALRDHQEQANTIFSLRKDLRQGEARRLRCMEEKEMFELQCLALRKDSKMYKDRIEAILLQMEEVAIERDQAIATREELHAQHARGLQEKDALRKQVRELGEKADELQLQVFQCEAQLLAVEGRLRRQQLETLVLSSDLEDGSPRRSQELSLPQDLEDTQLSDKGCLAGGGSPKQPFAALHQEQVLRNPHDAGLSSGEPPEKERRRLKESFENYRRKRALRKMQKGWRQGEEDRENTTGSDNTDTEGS
Protocol: (§1) The TUCAN polypeptides were expressed by transient transfection in HEK293T cells together with epitope-tagged pro-caspase-9 or other proteins. […] Cell lysates were prepared from transfected cells and immunoprecipitations were performed using anti-Flag or anti-Myc antibodies, followed by SDS-PAGE/immunoblot analysis.

pro-caspase-10 = biological target: T2, pro-caspase-10 (UniProt Q92851 1-521, limits assumed)
T2 sequence (looked up): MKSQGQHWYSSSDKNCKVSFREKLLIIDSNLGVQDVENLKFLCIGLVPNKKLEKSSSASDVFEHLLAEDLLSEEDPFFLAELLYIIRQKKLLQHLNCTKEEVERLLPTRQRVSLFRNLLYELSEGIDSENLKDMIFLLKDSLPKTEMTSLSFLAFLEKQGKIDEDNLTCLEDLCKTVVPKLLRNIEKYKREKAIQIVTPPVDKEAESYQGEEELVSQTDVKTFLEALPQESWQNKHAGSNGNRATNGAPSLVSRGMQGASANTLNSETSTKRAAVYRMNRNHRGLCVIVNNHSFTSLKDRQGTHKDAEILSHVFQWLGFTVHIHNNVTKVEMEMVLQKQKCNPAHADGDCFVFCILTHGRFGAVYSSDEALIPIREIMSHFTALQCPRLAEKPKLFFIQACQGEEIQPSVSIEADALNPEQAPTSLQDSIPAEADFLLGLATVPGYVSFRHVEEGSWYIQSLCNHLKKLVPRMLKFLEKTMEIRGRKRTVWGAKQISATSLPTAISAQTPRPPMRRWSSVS
Protocol: as §1

cIAP2 = cIAP2 (Homo sapiens (Human), UniProt Q13489 1-604)
Protocol: as §1

Nod1 (CARD4) = biological target: T3, Nod1 (CARD4) (UniProt Q9Y239 1-953, limits assumed)
T3 construct: also called Nodl
T3 sequence (looked up): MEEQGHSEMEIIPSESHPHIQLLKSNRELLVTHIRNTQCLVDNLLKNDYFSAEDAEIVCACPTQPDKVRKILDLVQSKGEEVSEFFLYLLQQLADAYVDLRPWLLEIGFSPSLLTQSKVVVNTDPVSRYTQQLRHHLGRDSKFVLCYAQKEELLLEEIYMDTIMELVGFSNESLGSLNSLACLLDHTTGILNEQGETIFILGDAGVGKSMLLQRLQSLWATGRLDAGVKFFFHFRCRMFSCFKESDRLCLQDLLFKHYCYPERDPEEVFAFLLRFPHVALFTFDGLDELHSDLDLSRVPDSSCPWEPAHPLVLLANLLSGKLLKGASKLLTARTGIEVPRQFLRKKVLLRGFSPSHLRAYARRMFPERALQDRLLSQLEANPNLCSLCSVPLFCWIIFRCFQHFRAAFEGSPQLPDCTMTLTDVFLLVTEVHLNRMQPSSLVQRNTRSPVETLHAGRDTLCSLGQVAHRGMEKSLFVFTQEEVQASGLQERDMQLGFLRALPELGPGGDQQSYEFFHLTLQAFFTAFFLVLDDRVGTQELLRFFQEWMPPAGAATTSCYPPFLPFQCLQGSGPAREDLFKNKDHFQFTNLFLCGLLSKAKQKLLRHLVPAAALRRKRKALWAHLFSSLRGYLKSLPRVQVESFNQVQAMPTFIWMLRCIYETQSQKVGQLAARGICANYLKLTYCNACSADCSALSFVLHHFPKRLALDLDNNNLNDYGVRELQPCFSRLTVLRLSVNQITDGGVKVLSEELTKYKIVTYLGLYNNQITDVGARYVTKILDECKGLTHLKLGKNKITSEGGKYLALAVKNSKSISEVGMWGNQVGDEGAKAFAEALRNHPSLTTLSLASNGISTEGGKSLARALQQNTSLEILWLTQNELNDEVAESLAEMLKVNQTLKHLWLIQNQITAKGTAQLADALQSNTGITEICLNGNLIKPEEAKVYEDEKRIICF
Protocol: as §1

CED4 = biological target: T4, CED4 (UniProt P30429 1-549, limits assumed)
T4 sequence (looked up): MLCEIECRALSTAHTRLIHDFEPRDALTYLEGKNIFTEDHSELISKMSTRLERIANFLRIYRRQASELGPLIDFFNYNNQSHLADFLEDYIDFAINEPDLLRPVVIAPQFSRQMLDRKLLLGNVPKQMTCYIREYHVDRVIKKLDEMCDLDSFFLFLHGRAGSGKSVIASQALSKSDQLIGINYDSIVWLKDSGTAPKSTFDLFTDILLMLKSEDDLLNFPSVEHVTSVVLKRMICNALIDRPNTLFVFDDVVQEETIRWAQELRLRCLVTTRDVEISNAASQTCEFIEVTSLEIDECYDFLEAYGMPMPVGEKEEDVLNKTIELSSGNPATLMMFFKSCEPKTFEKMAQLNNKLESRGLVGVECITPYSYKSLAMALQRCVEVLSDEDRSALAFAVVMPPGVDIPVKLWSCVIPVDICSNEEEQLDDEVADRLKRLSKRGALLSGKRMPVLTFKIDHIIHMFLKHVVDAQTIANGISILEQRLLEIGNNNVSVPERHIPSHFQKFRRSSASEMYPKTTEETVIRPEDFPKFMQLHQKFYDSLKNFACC
Protocol: as §1

pro-caspase-8 = pro-caspase-8 (UniProt Q14790 1-479, limits assumed)
Protocol: as §1

Cardiak (RIP2) = biological target: T5, Cardiak (RIP2) (UniProt O43353 1-540, limits assumed)
T5 construct: also called RICK
Protocol: as §1

cIAP1 = cIAP1 (UniProt Q13490 1-618, limits assumed)
Protocol: as §1

Measured: binding result

Chain of cIAP1 (Q13490 whole entry): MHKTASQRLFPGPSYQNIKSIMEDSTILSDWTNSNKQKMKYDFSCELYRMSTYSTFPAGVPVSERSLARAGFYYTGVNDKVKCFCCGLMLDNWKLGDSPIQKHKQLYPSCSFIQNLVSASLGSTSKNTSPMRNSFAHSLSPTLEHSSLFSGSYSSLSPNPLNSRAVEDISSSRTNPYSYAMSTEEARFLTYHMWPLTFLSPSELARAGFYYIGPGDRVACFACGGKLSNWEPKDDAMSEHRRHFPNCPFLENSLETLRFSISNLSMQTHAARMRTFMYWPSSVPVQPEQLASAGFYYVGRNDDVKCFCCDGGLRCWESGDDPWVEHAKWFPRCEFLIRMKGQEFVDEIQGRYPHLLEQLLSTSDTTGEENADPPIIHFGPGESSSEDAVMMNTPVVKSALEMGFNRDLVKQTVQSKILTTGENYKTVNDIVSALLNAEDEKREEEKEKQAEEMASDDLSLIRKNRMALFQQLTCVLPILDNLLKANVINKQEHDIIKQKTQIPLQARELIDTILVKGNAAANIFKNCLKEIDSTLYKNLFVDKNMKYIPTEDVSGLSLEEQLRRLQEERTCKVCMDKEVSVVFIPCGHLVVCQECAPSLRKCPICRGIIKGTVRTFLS
Chain of pro-caspase-8 (Q14790 whole entry): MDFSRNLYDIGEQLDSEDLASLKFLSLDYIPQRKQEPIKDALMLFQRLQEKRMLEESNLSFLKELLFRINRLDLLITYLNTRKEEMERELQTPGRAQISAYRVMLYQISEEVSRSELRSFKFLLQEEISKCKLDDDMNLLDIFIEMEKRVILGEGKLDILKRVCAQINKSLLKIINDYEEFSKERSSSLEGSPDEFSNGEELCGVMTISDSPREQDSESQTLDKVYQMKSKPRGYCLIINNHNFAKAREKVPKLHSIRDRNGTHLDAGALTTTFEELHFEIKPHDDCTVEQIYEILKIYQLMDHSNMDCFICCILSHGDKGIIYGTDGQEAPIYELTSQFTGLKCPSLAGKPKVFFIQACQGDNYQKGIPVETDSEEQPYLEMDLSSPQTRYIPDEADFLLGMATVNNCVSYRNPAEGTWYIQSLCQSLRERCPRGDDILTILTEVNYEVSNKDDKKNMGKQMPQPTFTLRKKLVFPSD
Chain of cIAP2 (Q13489 whole entry): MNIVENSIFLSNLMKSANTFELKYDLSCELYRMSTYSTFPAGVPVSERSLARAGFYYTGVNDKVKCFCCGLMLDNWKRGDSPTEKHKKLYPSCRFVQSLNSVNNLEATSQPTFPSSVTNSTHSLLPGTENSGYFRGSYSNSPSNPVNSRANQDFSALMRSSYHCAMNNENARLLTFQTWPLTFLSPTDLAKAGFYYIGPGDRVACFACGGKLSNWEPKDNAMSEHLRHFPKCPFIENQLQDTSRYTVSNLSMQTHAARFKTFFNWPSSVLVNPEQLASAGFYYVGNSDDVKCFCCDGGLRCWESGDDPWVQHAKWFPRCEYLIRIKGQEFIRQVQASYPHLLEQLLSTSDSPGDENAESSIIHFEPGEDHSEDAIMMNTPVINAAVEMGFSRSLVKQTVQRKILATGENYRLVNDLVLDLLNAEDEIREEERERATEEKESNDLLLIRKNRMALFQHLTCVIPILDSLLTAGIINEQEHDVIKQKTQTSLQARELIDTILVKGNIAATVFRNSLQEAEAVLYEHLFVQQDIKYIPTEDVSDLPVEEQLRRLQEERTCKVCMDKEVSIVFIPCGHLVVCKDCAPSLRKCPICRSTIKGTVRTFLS
T5 sequence (O43353 whole entry): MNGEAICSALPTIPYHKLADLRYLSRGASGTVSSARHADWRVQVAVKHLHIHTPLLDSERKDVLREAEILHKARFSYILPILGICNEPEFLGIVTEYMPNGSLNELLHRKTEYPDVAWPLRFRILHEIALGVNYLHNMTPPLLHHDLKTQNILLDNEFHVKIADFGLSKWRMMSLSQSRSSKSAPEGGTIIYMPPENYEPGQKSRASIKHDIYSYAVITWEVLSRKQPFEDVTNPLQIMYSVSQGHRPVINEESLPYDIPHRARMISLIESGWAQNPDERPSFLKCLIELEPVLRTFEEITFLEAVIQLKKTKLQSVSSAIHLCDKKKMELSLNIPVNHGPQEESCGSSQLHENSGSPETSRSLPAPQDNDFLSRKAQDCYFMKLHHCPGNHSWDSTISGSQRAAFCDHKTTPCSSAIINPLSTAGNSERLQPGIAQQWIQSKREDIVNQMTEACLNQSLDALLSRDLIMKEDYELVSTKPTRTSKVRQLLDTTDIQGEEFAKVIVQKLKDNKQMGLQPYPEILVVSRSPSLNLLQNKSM

B1: TUCAN (Tumor Up-regulated CARD-containing Antagonist of Caspase Nine), full-length (other)
chain: MMRQRQSHYCSVLFLSVNYLGGTFPGDICSEENQIVSSYASKVCFEIEEDYKNRQFLGPEGNVDVELIDKSTNRYSVWFPTAGWYLWSATGLGFLVRDEVTVTIAFGSWSQHLALDLQHHEQWLVGGPLFDVTAEPEEAVAEIHLPHFISLQGEVDVSWFLVAHFKNEGMVLEHPARVEPFYAVLESPSFSLMGILLRIASGTRLSIPITSNTLIYYHPHPEDIKFHLYLVPSDALLTKAIDDEEDRFHGVRLQTSPPMEPLNFGSSYIVSNSANLKVMPKELKLSYRSPGEIQHFSKFYAGQMKEPIQLEITEKRHGTLVWDTEVKPVDLQLVAASAPPPFSGAAFVKENHRQLQARMGDLKGVLDDLQDNEVLTENEKELVEQEKTRQSKNEALLSMVEKKGDLALDVLFRSISERDPYLVSYLRQQNL
notes: Full-length TUCAN expressed by transient transfection in HEK293T cells; also called full-length TUCAN; CARD-X
no binding: all assays above

Reference: patent US20030165887A1 (BURNHAM INSTITUTE, published 2003)
